Test results published in PMC10866937, “Aptamers targeting SARS-CoV-2 nucleocapsid protein exhibit potential anti pan-coronavirus activity”.
Like-named read-outs stand apart in the source and are kept apart here.

What was measured:
[1] = biological target: SARS-CoV-2 nucleocapsid protein (NP) (SARS-CoV-2 (WT), UniProt P0DTC9 1-419); test: CE; settings: protein: commercial
[2] = biological target: HCoV-OC43 nucleocapsid protein (HCoV-OC43, UniProt P33469 1-448); test: CE; Kd range for six aptamers 6.57-31.76 nM; settings: protein: recombinant
[3] = biological target: MERS-CoV nucleocapsid protein (MERS NP) (MERS-CoV, UniProt K9N4V7 1-411); settings: protein: commercial
[4] = biological target: SARS-CoV nucleocapsid protein (SARS NP) (SARS-CoV, UniProt P59595 1-422); settings: protein: commercial
[5] = label: 5'-FAM in CE (position not restated for aptamers)

Measured: binding result

ACTCCCACCTTTATTGAGGGCGGTGACGGGTTCCCTC (ssDNA) [Seq-59]
binds: [1]; label: FAM in CE | [2]; label: FAM in CE | [3]; label: FAM in CE | [4]; label: FAM in CE

TCCACGGTCGGTCCCCTTACCACTGGTCCCTTTGTC (ssDNA) [Seq-4650]
binds: [1]; label: FAM in CE | [2]; label: FAM in CE | [3]; label: FAM in CE | [4]; label: FAM in CE

AGGGGGGACACCTAGATTGTTGGCCGTGCGGATACG (ssDNA) [Seq-333]
binds: [1]; label: FAM in CE | [2]; label: FAM in CE | [3]; label: FAM in CE | [4]; label: FAM in CE

AGGGGGGACATCTGGAGTGTTGGCCGTGCGGATACG (ssDNA) [Seq-1022]
binds: [1]; label: FAM in CE | [2]; label: FAM in CE | [3]; label: FAM in CE | [4]; label: FAM in CE

CACCTCTCACCCCACGGTTCTGGTCCTTCCCCGACG (ssDNA) [Seq-1280]
binds: [1]; label: FAM in CE | [2]; label: FAM in CE | [3]; label: FAM in CE | [4]; label: FAM in CE

GCAGGCAAGGCTCTACTGACCCGTTGCTTGATCGAC (ssDNA) [Seq-7]
binds: [1]; [5] | [2]; [5] | [3]; [5] | [4]; [5]
